The values that follow come from publication PMC11656743.

The target in test [1] is MoaB2 with C-terminal His-tag, for crystallography (strain LK2615) (M. smegmatis). Briefly: crystal structure; X-ray, 2.53 Å; crystals from 0.2 M calcium chloride, 14% PEG 400, 0.1 M sodium-HEPES pH 7.5.
Test [2] has the same target. The experiment in a line: dynamic light scattering; 5 mg/mL MoaB2 in 20 mM Tris-HCl pH 8.0, 50 mM NaCl, 3 mM NaN3, 25°C.
Test [3] has as its target MoaB2, recombinant, tag cleaved (strain LK2936) (M. smegmatis) (UniProt A0R3I5). Briefly: SEC; Superdex 200 Increase 10/300, 25 mM Tris-HCl pH 7.5, 50 mM NaCl, 1 mM DTT, 15°C; fractions on SDS-PAGE.
Test [4] has as its target σ^A, recombinant, tag cleaved (strain LK2832) (M. smegmatis) (UniProt A0QW02). The experiment in a line: AUC; multi-signal sedimentation velocity (absorbance 280 nm and interference) at σ^A:MoaB2 molar ratio 1:0.3.
The target of test [5] is MoaB2, recombinant, tag cleaved (strain LK2936) (M. smegmatis) (UniProt A0R3I5). Briefly: AUC; sedimentation velocity, 20°C, 50 mM HEPES pH 7.5, 100 mM NaCl, 0.5 mM TCEP, 3 mM NaN3; σ^A 19.4 µM, MoaB2 77.6 µM, σ^A:MoaB2 mixtures 1:0.1 to 1:4.
The target of test [6] is σ^A, recombinant, tag cleaved (strain LK2832) (M. smegmatis) (UniProt A0QW02). The description is as above.

“And” between values parts separate entries of the source, which are not always exact repeats. Identical values can stand only once.

Consider “MoaB2 with C-terminal His-tag, for crystallography (strain LK2615) (natural protein)”, for which the stoichiometry N in test [1] and in test [2] was 6 in each case.
As to “MoaB2, recombinant, tag cleaved (strain LK2936) (from UniProt A0R3I5 1-178) (natural protein)”, the stoichiometry N is 6 in test [3]; 1 σ^A:MoaB2 in test [4]; 6 and 3 in test [5]; 1 σ^A:MoaB2 in test [6]. Further, in test [6], the dissociation constant Kd is below 1 µM.

As usually defined, the stoichiometry N is a count of units in the complex or per binding partner. One may read the Kd as the free concentration of one partner at which half of the binding sites on the other are occupied at equilibrium, for simple one-to-one binding.
